B1: Protein PTHB1 (Homo sapiens), Q3SYG4 (parent)
chain: MSLFKARDWWSTILGDKEEFDQGCLCLANVDNSGNGQDKIIVGSFMGYLRIFSPHPAKTGDGAQAEDLLLEVDLRDPVLQVEVGKFVSGTEMLHLAVLHSRKLCVYSVSGTLGNVEHGNQCQMKLMYEHNLQRTACNMTYGSFGGVKGRDLICIQSMDGMLMVFEQESYAFGRFLPGFLLPGPLAYSSRTDSFLTVSSCQQVESYKYQVLAFATDADKRQETEQQKLGSGKRLVVDWTLNIGEQALDICIVSFNQSASSVFVLGERNFFCLKDNGQIRFMKKLDWSPSCFLPYCSVSEGTINTLIGNHNNMLHIYQDVTLKWATQLPHIPVAVRVGCLHDLKGVIVTLSDDGHLQCSYLGTDPSLFQAPNVQSRELNYDELDVEMKELQKIIKDVNKSQGVWPMTEREDDLNVSVVVSPNFDSVSQATDVEVGTDLVPSVTVKVTLQNRVILQKAKLSVYVQPPLELTCDQFTFEFMTPDLTRTVSFSVYLKRSYTPSELEGNAVVSYSRPTDRNPDGIPRVIQCKFRLPLKLICLPGQPSKTASHKITIDTNKSPVSLLSLFPGFASQSDDDQVNVMGFHFLGGARITVLASKTSQRYRIQSEQFEDLWLITNELILRLQEYFEKQGVKDFACSFSGSIPLQEYFELIDHHFELRINGEKLEELLSERAVQFRAIQRRLLARFKDKTPAPLQHLDTLLDGTYKQVIALADAVEENQGNLFQSFTRLKSATHLVILLIALWQKLSADQVAILEAAFLPLQEDTQELGWEETVDAAISHLLKTCLSKSSKEQALNLNSQLNIPKDTSQLKKHITLLCDRLSKGGRLCLSTDAAAPQTMVMPGGCTTIPESDLEERSVEQDSTELFTNHRHLTAETPRPEVSPLQGVSE
partner: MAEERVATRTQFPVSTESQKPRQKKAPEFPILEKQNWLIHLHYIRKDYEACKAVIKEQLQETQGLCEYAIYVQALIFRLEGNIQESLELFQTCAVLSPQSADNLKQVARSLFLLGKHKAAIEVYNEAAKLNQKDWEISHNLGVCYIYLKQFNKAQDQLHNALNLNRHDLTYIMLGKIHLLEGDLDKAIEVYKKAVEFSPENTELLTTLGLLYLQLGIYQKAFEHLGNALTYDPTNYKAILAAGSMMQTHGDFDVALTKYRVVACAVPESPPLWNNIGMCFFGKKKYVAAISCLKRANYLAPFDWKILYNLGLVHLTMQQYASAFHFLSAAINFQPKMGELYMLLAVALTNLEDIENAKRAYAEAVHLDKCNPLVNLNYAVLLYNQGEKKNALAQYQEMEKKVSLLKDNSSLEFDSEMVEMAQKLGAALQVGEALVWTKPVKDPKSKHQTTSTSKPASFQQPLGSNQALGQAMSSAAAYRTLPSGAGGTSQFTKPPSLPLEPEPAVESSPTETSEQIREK

Variants of: B1
Settings: with bbs4_human BBS4, Q96RK4
For S860A, the “effect of a mutation on the interaction” value was “with no effect”.
L531E was tested, and the “effect of a mutation on the interaction” value was “with no effect”.
In the case of E475K, the “effect of a mutation on the interaction” value is reported as “with no effect”.
In the case of T874E, the “effect of a mutation on the interaction” value is reported as “with no effect”.
With G433A the “effect of a mutation on the interaction” value was “with no effect”.
Q742K was tested, and the “effect of a mutation on the interaction” value was “with no effect”.
For P419K, the “effect of a mutation on the interaction” value was “with no effect”.
I735E was tested, and the “effect of a mutation on the interaction” value was “with no effect”.
With A675K the “effect of a mutation on the interaction” value was “with no effect”.
P530E was tested, and the “effect of a mutation on the interaction” value was “with no effect”.
For T771A, the “effect of a mutation on the interaction” value was “with no effect”.
With F580K the “effect of a mutation on the interaction” value was “with no effect”.
For V713K, the “effect of a mutation on the interaction” value was “with no effect”.
G518A was tested, and the “effect of a mutation on the interaction” value was “with no effect”.
For V437E, the “effect of a mutation on the interaction” value was “with no effect”.
With Q462A the “effect of a mutation on the interaction” value was “with no effect”.
D830E was tested, and the “effect of a mutation on the interaction” value was “with no effect”.
For D830A, the “effect of a mutation on the interaction” value was “with no effect”.
For D830K, the “effect of a mutation on the interaction” value was “with no effect”.
For T484K, the “effect of a mutation on the interaction” value was “with no effect”.
In the case of F606E, the “effect of a mutation on the interaction” value is reported as “with no effect”.
With C826A the “effect of a mutation on the interaction” value was “with no effect”.
In the case of R483E, the “effect of a mutation on the interaction” value is reported as “with no effect”.
In the case of P802E, the “effect of a mutation on the interaction” value is reported as “with no effect”.
With P802T the “effect of a mutation on the interaction” value was “disrupting interaction strength”.
V417K was tested, and the “effect of a mutation on the interaction” value was “with no effect”.
For I548K, the “effect of a mutation on the interaction” value was “with no effect”.
L452E was tested, and the “effect of a mutation on the interaction” value was “with no effect”.
In the case of D517E, the “effect of a mutation on the interaction” value is reported as “with no effect”.
For D517A, the “effect of a mutation on the interaction” value was “with no effect”.
S596K was tested, and the “effect of a mutation on the interaction” value was “with no effect”.
In the case of F636K, the “effect of a mutation on the interaction” value is reported as “with no effect”.
For S785K, the “effect of a mutation on the interaction” value was “disrupting interaction strength”.
For Y495A, the “effect of a mutation on the interaction” value was “with no effect”.
For G767A, the “effect of a mutation on the interaction” value was “with no effect”.
T441A was tested, and the “effect of a mutation on the interaction” value was “with no effect”.
For S855E, the “effect of a mutation on the interaction” value was “with no effect”.
L457E was tested, and the “effect of a mutation on the interaction” value was “with no effect”.
With L784E the “effect of a mutation on the interaction” value was “with no effect”.
D572N was tested, and the “effect of a mutation on the interaction” value was “disrupting interaction strength”.
D696A was tested, and the “effect of a mutation on the interaction” value was “with no effect”.
In the case of D696K, the “effect of a mutation on the interaction” value is reported as “with no effect”.
For D696V, the “effect of a mutation on the interaction” value was “disrupting interaction strength”.
For Q835A, the “effect of a mutation on the interaction” value was “with no effect”.
With H651A the “effect of a mutation on the interaction” value was “with no effect”.
For S745A, the “effect of a mutation on the interaction” value was “with no effect”.
P875A was tested, and the “effect of a mutation on the interaction” value was “with no effect”.
For D409A, the “effect of a mutation on the interaction” value was “with no effect”.
With D409E the “effect of a mutation on the interaction” value was “with no effect”.
In the case of D409K, the “effect of a mutation on the interaction” value is reported as “with no effect”.
For L766C, the “effect of a mutation on the interaction” value was “disrupting interaction strength”.
L766E was tested, and the “effect of a mutation on the interaction” value was “with no effect”.
D650A was tested, and the “effect of a mutation on the interaction” value was “with no effect”.
With R679L the “effect of a mutation on the interaction” value was “disrupting interaction strength”.
With R679A the “effect of a mutation on the interaction” value was “with no effect”.
With E664A the “effect of a mutation on the interaction” value was “with no effect”.
Q672A was tested, and the “effect of a mutation on the interaction” value was “with no effect”.
For L709E, the “effect of a mutation on the interaction” value was “with no effect”.
With L709A the “effect of a mutation on the interaction” value was “with no effect”.
With A544K the “effect of a mutation on the interaction” value was “with no effect”.
In the case of E644A, the “effect of a mutation on the interaction” value is reported as “with no effect”.
With K526E the “effect of a mutation on the interaction” value was “with no effect”.
For S723A, the “effect of a mutation on the interaction” value was “with no effect”.
P556A was tested, and the “effect of a mutation on the interaction” value was “with no effect”.
In the case of P564K, the “effect of a mutation on the interaction” value is reported as “with no effect”.
Y460E was tested, and the “effect of a mutation on the interaction” value was “with no effect”.
In the case of D422A, the “effect of a mutation on the interaction” value is reported as “with no effect”.
With T613I the “effect of a mutation on the interaction” value was “disrupting interaction strength”.
In the case of T613K, the “effect of a mutation on the interaction” value is reported as “with no effect”.
For S886A, the “effect of a mutation on the interaction” value was “with no effect”.
For I676A, the “effect of a mutation on the interaction” value was “with no effect”.
For L465A, the “effect of a mutation on the interaction” value was “with no effect”.
For L465E, the “effect of a mutation on the interaction” value was “disrupting interaction strength”.
For A586K, the “effect of a mutation on the interaction” value was “with no effect”.
For K554E, the “effect of a mutation on the interaction” value was “with no effect”.
In the case of P689A, the “effect of a mutation on the interaction” value is reported as “with no effect”.
With V772E the “effect of a mutation on the interaction” value was “disrupting interaction strength”.
With L827K the “effect of a mutation on the interaction” value was “with no effect”.
For G638E, the “effect of a mutation on the interaction” value was “with no effect”.
In the case of G638K, the “effect of a mutation on the interaction” value is reported as “with no effect”.
C816K was tested, and the “effect of a mutation on the interaction” value was “with no effect”.
With C816A the “effect of a mutation on the interaction” value was “with no effect”.
In the case of G584E, the “effect of a mutation on the interaction” value is reported as “disrupting interaction strength”.
In the case of V444I, the “effect of a mutation on the interaction” value is reported as “disrupting interaction strength”.
R510K was tested, and the “effect of a mutation on the interaction” value was “with no effect”.
With P516K the “effect of a mutation on the interaction” value was “with no effect”.
For A455E, the “effect of a mutation on the interaction” value was “with no effect”.
For L744K, the “effect of a mutation on the interaction” value was “with no effect”.
For A670K, the “effect of a mutation on the interaction” value was “with no effect”.

— IntAct's records for PubMed 29039417
